Test results published in PMC5662737, “Structural and mechanistic insights into ATRX-dependent and -independent functions of the histone chaperone DAXX” (Nature Communications, 2017).

B1: human ATRX DAXX-binding motif (DBM) peptide, wild type [human] / human DAXX four-helix bundle domain (4HB, residues 50–144) [human] (parent complex)
chain 1: NDPENRIAKKMLLEEIKANLSSDE
chain 2: SSSSGGKKCYKLENEKLFEEFLELCKMQTADHPEVVPFLYNRQQRAHSLFLASAEFCNILSRVLSRARSRPAKLYVYINELCTVLKAHSAKKKLN
B2: human DAXX four-helix bundle domain (4HB, residues 50–144) [human] / human ATRX DAXX-binding motif (DBM) peptide, wild type [human] (parent complex)
chain 1: B1 chain 2
chain 2: NDPENRIAKKMLLEEIKANLSSDE

Variants of: B1
Test: ITC

Row | Variant | Kd [µM]
1 | chain 1 NDPENRIAKKMLLEEAKANLSSDE [chain 1 I16A] | 12.9

Variants of: B2
Test: ITC

Row | Variant | Kd [µM]
2 | chain 1 SSSSGGKKCYKLENEKLFEEFLELCKMQTADHPEVVPALYNRQQRAHSLFLASAEFCNILSRVLSRARSRPAKLYVYINELCTVLKAHSAKKKLN [chain 1 F38A] | 7.5
